We go through 25 sequences from the supplement of paper PMC11780869.

The subject of the data set is Bacillus subtilis. As to the kind of experiment: cleaved RNA product abundance (RNA/gDNA barcode ratio) relative to median wild-type variant (ratio to wild type); higher = more accumulation of the downstream cleavage product. Conditions: experiment (reporter, strain, medium): exp 8a: truncated aprE reporter, strain BJT201 with 2% xylose (RNase J1 expressed); cleavage site: glnRA (positions -5 to +31 mutated). The method, boiled down:
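Cleaved product abundance for each construct is its RNA-to-gDNA barcode ratio, scaled to the median construct carrying the unmutated site. Cleaved RNA was isolated on a gel, reverse transcribed and barcode-sequenced, with genomic DNA barcodes sequenced alongside and UMIs collapsed. The reporters were truncated aprE or tetM mRNAs with barcoded, mutagenized RNase Y cleavage-site windows integrated into the B. subtilis chromosome, and cultures grew in LB at 37°C from OD600 0.0003 to 0.3.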
As to “CGACATGTCCCGCTTCTTTCATTAATCCGTTATCAACAGTTTTGCTATATACATTTACCTTTTAAGAGGAGGAAT”, the “cleaved RNA product abundance” value came to 0.296.
With “CGACATGTCCCGCTTCTTTCATTAATCCGTTATCAACTATTTTGCTATATACATTTACCTTTTAAGAGGAGGAAT” the figure was 0.276; with “CGACATGTCCCGCTTCTTTCATTAATCCGTTATCAACTCTTTTGCTATATACATTTACCTTTTAAGAGGAGGAAT”, 0.252.
Under “CGACATGTCCCGCTTCTTTCATTAATCCGTTATCAACTGATTTGCTATATACATTTACCTTTTAAGAGGAGGAAT” stands 0.286; under “CGACATGTCCCGCTTCTTTCATTAATCCGTTATCAACTGCTTTGCTATATACATTTACCTTTTAAGAGGAGGAAT”, 0.114; under “CGACATGTCCCGCTTCTTTCATTAATCCGTTATCAACTGGTTTGCTATATACATTTACCTTTTAAGAGGAGGAAT”, 0.204.
Under “CGACATGTCCCGCTTCTTTCATTAATCCGTTATCAACTGTATTGCTATATACATTTACCTTTTAAGAGGAGGAAT” stands 0.306; under “CGACATGTCCCGCTTCTTTCATTAATCCGTTATCAACTGTGTTGCTATATACATTTACCTTTTAAGAGGAGGAAT”, 0.27; under “CGACATGTCCCGCTTCTTTCATTAATCCGTTATCAACTGTTATGCTATATACATTTACCTTTTAAGAGGAGGAAT”, 0.24.
With “CGACATGTCCCGCTTCTTTCATTAATCCGTTATCAACTGTTCTGCTATATACATTTACCTTTTAAGAGGAGGAAT”, the “cleaved RNA product abundance” value was found to be 0.213.
As for “CGACATGTCCCGCTTCTTTCATTAATCCGTTATCAACTGTTTAGCTATATACATTTACCTTTTAAGAGGAGGAAT”, the “cleaved RNA product abundance” value was determined as 0.243.
“CGACATGTCCCGCTTCTTTCATTAATCCGTTATCAACTGTTTCGCTATATACATTTACCTTTTAAGAGGAGGAAT”: the “cleaved RNA product abundance” value is 0.192.
With “CGACATGTCCCGCTTCTTTCATTAATCCGTTATCAACTGTTTGGCTATATACATTTACCTTTTAAGAGGAGGAAT”, the “cleaved RNA product abundance” value came to 0.231.
Under “CGACATGTCCCGCTTCTTTCATTAATCCGTTATCAACTGTTTTAATATATACATTTACCTTTTAAGAGGAGGAAT” stands 0.415; under “CGACATGTCCCGCTTCTTTCATTAATCCGTTATCAACTGTTTTACTATATACATTTACCTTTTAAGAGGAGGAAT”, 0.335; under “CGACATGTCCCGCTTCTTTCATTAATCCGTTATCAACTGTTTTCCTATATACATTTACCTTTTAAGAGGAGGAAT”, 0.292.
With “CGACATGTCCCGCTTCTTTCATTAATCCGTTATCAACTGTTTTGATATATACATTTACCTTTTAAGAGGAGGAAT” the figure was 0.26; with “CGACATGTCCCGCTTCTTTCATTAATCCGTTATCAACTGTTTTGCAATATACATTTACCTTTTAAGAGGAGGAAT”, 0.266.
“CGACATGTCCCGCTTCTTTCATTAATCCGTTATCAACTGTTTTGCCATATACATTTACCTTTTAAGAGGAGGAAT”: the “cleaved RNA product abundance” value was 0.145.
Under “CGACATGTCCCGCTTCTTTCATTAATCCGTTATCAACTGTTTTGCGATATACATTTACCTTTTAAGAGGAGGAAT” stands 0.168; under “CGACATGTCCCGCTTCTTTCATTAATCCGTTATCAACTGTTTTGCTAAATACATTTACCTTTTAAGAGGAGGAAT”, 0.237; under “CGACATGTCCCGCTTCTTTCATTAATCCGTTATCAACTGTTTTGCTATAAACATTTACCTTTTAAGAGGAGGAAT”, 0.182.
Under “CGACATGTCCCGCTTCTTTCATTAATCCGTTATCAACTGTTTTGCTATACACATTTACCTTTTAAGAGGAGGAAT” stands 0.27.
As to “CGACATGTCCCGCTTCTTTCATTAATCCGTTATCAACTGTTTTGCTATAGACATTTACCTTTTAAGAGGAGGAAT”, the “cleaved RNA product abundance” value is 0.206.
With “CGACATGTCCCGCTTCTTTCATTAATCCGTTATCAACTGTTTTGCTATATAAATTTACCTTTTAAGAGGAGGAAT” the figure was 0.243.
